Measurements reported in paper PMC5735978, “PAK6 Phosphorylates 14-3-3γ to Regulate Steady State Phosphorylation of LRRK2” (Frontiers in Molecular Neuroscience, 2017).
Each block holds one binder with its values, some of them ahead of it.

Tests used:
[1] = molecular target: T1, 3xFlag-PAK6 wild-type (UniProt Q9NQU5 1-681, autophosphorylated; phospho-Ser560 monitored by western blot); assay: pull-down; Flag-purified PAK6 bound to anti-Flag resin incubated for 2 h with purified His-14-3-3 isoforms (1 μM); bound 14-3-3s revealed with anti-His antibody; details: both partners purified
T1 construct: construct as described in Civiero et al., 2015; source: HEK293T, transfected; in lysate (immunoprecipitation) and immunopurified on anti-Flag resin (pull-down, overlay)
T1 sequence (Q9NQU5 whole entry, canonical isoform): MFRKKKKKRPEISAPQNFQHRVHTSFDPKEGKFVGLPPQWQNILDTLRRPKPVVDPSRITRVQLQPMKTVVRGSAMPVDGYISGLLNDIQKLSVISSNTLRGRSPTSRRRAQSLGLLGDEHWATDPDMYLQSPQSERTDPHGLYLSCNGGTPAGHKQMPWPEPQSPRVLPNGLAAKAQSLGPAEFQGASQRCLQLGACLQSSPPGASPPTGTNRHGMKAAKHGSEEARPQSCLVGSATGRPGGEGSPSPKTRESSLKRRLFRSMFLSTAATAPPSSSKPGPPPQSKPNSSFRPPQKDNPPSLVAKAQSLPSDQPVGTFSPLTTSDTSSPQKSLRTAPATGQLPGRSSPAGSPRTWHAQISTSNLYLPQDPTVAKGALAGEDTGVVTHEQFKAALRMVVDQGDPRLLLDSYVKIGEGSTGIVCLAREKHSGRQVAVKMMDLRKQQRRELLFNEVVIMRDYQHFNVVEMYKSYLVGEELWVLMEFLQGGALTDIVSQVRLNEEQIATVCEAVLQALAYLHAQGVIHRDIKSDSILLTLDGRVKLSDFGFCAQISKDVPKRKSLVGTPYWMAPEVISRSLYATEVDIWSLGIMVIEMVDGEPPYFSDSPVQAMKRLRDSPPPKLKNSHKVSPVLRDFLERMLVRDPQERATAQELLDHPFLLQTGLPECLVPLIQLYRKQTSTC

[2] = molecular target: T2, 3xFlag-PAK6 S531N (UniProt Q9NQU5 1-681, S531N, autophosphorylated; phospho-Ser560 monitored by western blot); assay: far-Western, overlay or dot blot; immunopurified Flag-tagged PAK6 or LRRK2 separated by SDS-PAGE and blotted onto nitrocellulose; incubated with purified His-14-3-3s at 1 μg/ml in 5% BSA in TBS-T overnight at 4°C; anti-His detection; details: both partners purified
T2 construct: PAK6, constitutively active variant; construct as described in Civiero et al., 2015; also called active variant S531N; source: HEK293T, transfected; in lysate (immunoprecipitation) and immunopurified (overlay)
T2 sequence (Q9NQU5 whole entry S531N): as the sequence (Q9NQU5 whole entry, canonical isoform) above, with S531N counted along it

[3] = molecular target: the molecule itself; assay: native gel or EMSA; blue native gel (4-16%) of purified His-14-3-3γ wild-type, S59D and T145D; 5 μg of protein loaded; Coomassie staining
[4] = molecular target: T1, 3xFlag-PAK6 wild-type; assay: far-Western, overlay or dot blot; immunopurified Flag-tagged PAK6 or LRRK2 separated by SDS-PAGE and blotted onto nitrocellulose; incubated with purified His-14-3-3s at 1 μg/ml in 5% BSA in TBS-T overnight at 4°C; anti-His detection; details: both partners purified

- binding result [1]: binds
- fold affinity against PAK6 wild-type [2]: 2 fold
B1: 6xHis-14-3-3γ wild-type (natural protein, human, UniProt P61981 1-247, looked up)
chain: MVDREQLVQKARLAEQAERYDDMAAAMKNVTELNEPLSNEERNLLSVAYKNVVGARRSSWRVISSIEQKTSADGNEKKIEMVRAYREKIEKELEAVCQDVLSLLDNYLIKNCSETQYESKVFYLKMKGDYYRYLAEVATGEKRATVVESSEKAYSEAHEISKEHMQPTHPIRLGLALNYSVFYYEIQNAPEQACHLAKTAFDDAIAELDTLNEDSYKDSTLIMQLLRDNLTLWTSDQQDDDGGEGNN
notes: 14-3-3 protein gamma, cloned in pET28a(+) by PCR from a mammalian expression plasmid (Prof. Dario Alessi); runs around the size of the dimer on blue native gels; also called recombinant 14-3-3γ; 14-3-3 gamma; source: E. coli BL21(DE3), purified (IMAC, ProBond resin; PD10 desalting); not shown: 6xHis, N-terminal, kept

B2: His-14-3-3γ T145D (natural protein, human, UniProt P61981 1-247, looked up)
chain: MVDREQLVQKARLAEQAERYDDMAAAMKNVTELNEPLSNEERNLLSVAYKNVVGARRSSWRVISSIEQKTSADGNEKKIEMVRAYREKIEKELEAVCQDVLSLLDNYLIKNCSETQYESKVFYLKMKGDYYRYLAEVATGEKRADVVESSEKAYSEAHEISKEHMQPTHPIRLGLALNYSVFYYEIQNAPEQACHLAKTAFDDAIAELDTLNEDSYKDSTLIMQLLRDNLTLWTSDQQDDDGGEGNN
notes: 14-3-3 protein gamma, phosphomimetic mutant; also called S145D (as once printed); source: E. coli BL21(DE3), purified (IMAC); not shown: 6xHis, N-terminal, kept
- binding result [3]: binds

- binding result [4]: binds
B3: 6xHis-14-3-3 zeta (natural protein, human, UniProt P63104 1-245, looked up)
chain: MDKNELVQKAKLAEQAERYDDMAACMKSVTEQGAELSNEERNLLSVAYKNVVGARRSSWRVVSSIEQKTEGAEKKQQMAREYREKIETELRDICNDVLSLLEKFLIPNASQAESKVFYLKMKGDYYRYLAEVAAGDDKKGIVDQSQQAYQEAFEISKKEMQPTHPIRLGLALNFSVFYYEILNSPEKACSLAKTAFDEAIAELDTLSEESYKDSTLIMQLLRDNLTLWTSDTQGDEAEAGEGGEN
notes: 14-3-3 protein zeta, cloned in pET28a(+) by PCR from a mammalian expression plasmid (Prof. Dario Alessi); also called His-14-3-3ζ; source: E. coli BL21(DE3), purified (IMAC, ProBond resin; PD10 desalting); not shown: 6xHis, N-terminal, kept

- binding result [4]: binds
B4: 6xHis-14-3-3 theta (natural protein, human, UniProt P27348 1-245, looked up)
chain: MEKTELIQKAKLAEQAERYDDMATCMKAVTEQGAELSNEERNLLSVAYKNVVGGRRSAWRVISSIEQKTDTSDKKLQLIKDYREKVESELRSICTTVLELLDKYLIANATNPESKVFYLKMKGDYFRYLAEVACGDDRKQTIDNSQGAYQEAFDISKKEMQPTHPIRLGLALNFSVFYYEILNNPELACTLAKTAFDEAIAELDTLNEDSYKDSTLIMQLLRDNLTLWTSDSAGEECDAAEGAEN
notes: 14-3-3 protein theta, cloned in pET28a(+) by PCR from a mammalian expression plasmid (Prof. Dario Alessi); also called His-14-3-3θ; source: E. coli BL21(DE3), purified (IMAC, ProBond resin; PD10 desalting); not shown: 6xHis, N-terminal, kept
